What all share (test): cell-based or functional assay
The target in assay [1] is sortase-ligated phosphopeptide β2AR reconstituted in HDL particles (HDL-β2ARpp) (human) (UniProt P07550).
Assay [2] deals with wild-type (WT) β2AR reconstituted in high-density lipoprotein particles (HDL-β2AR), non-phosphorylated (human) (UniProt P07550).
The target in assay [3] is phosphopeptide-ligated β2AR with a deletion of the third intracellular loop (β2ARppΔ238-267), in HDL particles (human) (UniProt P07550).
The target in assay [4] is β2AR ligated to a non-phosphorylated version of the V2R peptide, in HDL particles (β2ARnp) (human) (UniProt P07550).

Regarding “finger loop deletion mutant of β-arrestin1 (βarr1 Δ62-77) in βarr1-MC-393 (from UniProt P29066 1-61; P29066 78-393)”, in assay [1], the log IC50 of isoproterenol (ISO), competition radioligand binding, in the presence of βarr1 Δ62-77 (no transducer: -6.30+/-0.05) was -6.48 log.
Turning to “heterotrimeric Gs protein (short Gαs splice variant, Gβ1-His6, Gγ2) (from UniProt P62873 2-340; P59768 2-68)”, in assay [2], the fold increase of isoproterenol affinity by the transducer was 1000 fold and the log IC50 of isoproterenol (ISO), [125I]-CYP competition binding, in the presence of Gs (no transducer: -6.82+/-0.03) was -8.88 log. Further, in assay [3], the log IC50 of isoproterenol (ISO), competition radioligand binding, in the presence of Gs (no transducer: -6.91+/-0.04) is -8.85 log. In addition, the log IC50 of isoproterenol (ISO), [125I]-CYP competition binding, in the presence of Gs (no transducer: -6.42+/-0.09) in assay [4] was -9.02 log. Further, in assay [1], the fold increase of isoproterenol affinity by the transducer was found to be 800 fold and the log IC50 of isoproterenol (ISO), [125I]-CYP competition binding, in the presence of Gs (no transducer: -6.24+/-0.04) was -9.15 log.
As for “β-arrestin1, minimal cysteine and truncated variant of rat βarr1 (βarr1-MC-393) (from UniProt P29066 1-393)”, in assay [1], the fold increase of isoproterenol affinity by the transducer worked out at 9 fold; the log IC50 of isoproterenol (ISO), [125I]-CYP competition binding, in the presence of βarr1 (no transducer: -6.24+/-0.04) is -7.14 log; the log IC50 of isoproterenol (ISO), competition radioligand binding, in the presence of βarr1 (no transducer: -6.30+/-0.05) is -7.25 log.
